Results taken from PMC4646684.

Experiments:
[1] = biological target: soluble form of Fas ligand (mouse (endogenous in primary Balb/cJ bone marrow-derived osteoclast cultures))
[2] = biological target: soluble form of Fas ligand (mouse (endogenous in primary Balb/cJ bone marrow-derived osteoclast cultures)); remark: listed apart in the source

soluble form of Fas ligand (mouse (endogenous in primary Balb/cJ bone marrow-derived osteoclast cultures)), sequence (P41047 101-279): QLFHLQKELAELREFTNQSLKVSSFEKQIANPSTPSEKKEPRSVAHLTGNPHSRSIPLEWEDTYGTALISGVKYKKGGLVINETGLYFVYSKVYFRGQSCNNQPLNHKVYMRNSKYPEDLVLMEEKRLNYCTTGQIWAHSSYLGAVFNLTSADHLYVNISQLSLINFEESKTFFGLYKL

percentage of apoptotic osteoclasts (TUNEL-derived method), 24 h with OPG at 0, 20, 40, 80 ng/mL (22.7%, 34.8%, 43.5%, 51.3%) [1]: 51.3%
concentration of soluble FasL in the osteoclast culture medium by ELISA, 24 h with OPG at 0, 20, 40, 80 ng/mL (69.44, 54.51, 41.71, 4.59 pg/mL; falls with the dose) [2]: 69.4 pg/mL
Substance: Osteoprotegerin (from UniProt O08712 22-401) (receptor)
